Series [1] in a line: Ozone exposure forced degradation of human PTH (1-34) solution (Test Example 2). The format is physicochemical. Conditions: solution with sucrose and sodium chloride, stirred; ozone approximately 0.08 ppm, about 20 hours. The method, then: A quantity of 4.00 g of sucrose and 0.20 g of sodium chloride were weighed out and dissolved by adding water for injection to make a placebo solution. […] An environment having an ozone concentration of approximately 0.08 ppm by ozone concentration meter was produced using an ozone generator and a blower (initial wind speed approximately 7.2 m/s) to circulate the ozone and make the concentration uniform in a tray having a 40 cm long×90 cm wide×100 cm high glass door. Approximately 15 mL of the reaction stock solution was dispensed into each 20 mL vial. […] Furthermore, the purity was confirmed in accordance with the test conditions of Test Example 1. The degraded solution was freeze dried, and a solution dissolved by a suitable amount of water for injection was taken as a forced-degradation solution. The analogs were fractionated under the following conditions using this solution.

Series [2] in a line: HPLC area percentage method: amount of PTH analogs in freeze-dried preparations and bulk drug (Test Example 1). It counts as physicochemical. Conditions: human PTH (1-34) bulk drug lot, HPLC peak area %.
Description: The area percentage method using HPLC is a simple method for assessing the purity of a freeze-dried preparation containing PTH peptide and the amount of analogs. A solution obtained by weighing out 0.25 g of benzalkonium chloride and bringing it to 50 mL by adding 50 mM sulfate buffer (pH 2.3) serves as the loading buffer. Each preparation of the examples and comparative examples is dissolved by 1 mL of physiological saline solution, and a 9:1 mixture of this solution and the loading buffer serves as the sample solution. A quantity of 100 μL of sample solution is tested by HPLC under the following conditions. Furthermore, benzalkonium chloride was used to prevent the peptide that is the target of measurement from attaching to the instrument and the like.
Detector: Ultraviolet absorptiometer (measurement wavelength: 214 nm)
Column: Stainless steel tube 150 mm long having an inner diameter of 4.6 mm packed with 3.5 μm of octadecylsilylated silica gel
Column temperature: Constant temperature near 40° C.
Mobile phase: Mobile phase A: Dissolve 28.4 g of anhydrous sodium sulfate in 900 mL of water and bring to 1000 mL by adding water after adding phosphoric acid to adjust the pH to 2.3. Add 100 mL of acetonitrile to this 900 mL of liquid.
Mobile phase B: Dissolve 28.4 g of anhydrous sodium sulfate in 900 mL of water and bring to 1000 mL by adding water after adding phosphoric acid to adjust the pH to 2.3 Add 500 mL of acetonitrile to 500 mL of this liquid.
Mobile phase feed: Concentration gradient control is provided by varying the mixture ratio of mobile phase A and mobile phase B as follows.
Sample temperature: Constant temperature near 5° C.
Detection time: 45 minutes after injection of the sample solution. However, this is from the back of the solvent peak.
Calculation method: The amount of each PTH analog and the total amount thereof was determined by performing liquid chromatography under the above conditions, measuring each peak area by automatic integration, and performing calculation using Formulas 1 and 2. Furthermore, the total peak area was the sum total of the area of all peaks detected by performing liquid chromatography under the above conditions. […] Amount of each PTH analog (%)=(peak area of each analog/total peak area)×100 Formula 1: Total amount of PTH analogs (%)=(sum total of peak areas of each analog/total peak area)×100 Formula 2:

We go through eight molecules from US10683335B2, “Freeze-dried preparation containing high-purity PTH and method for producing same” (ASAHI KASEI PHARMA CORPORATION, priority 2011, dated 2020).

Consider `CC[C@H](C)[C@H](NC(=O)[C@H](CCC(=O)O)NC(=O)[C@H](CO)NC(=O)[C@@H](NC(=O)[C@@H](N)CO)C(C)C)C(=O)N[C@@H](CCC(N)=O)C(=O)N[C@@H](CC(C)C)C(=O)N[C@@H](CCSC)C(=O)N[C@@H](Cc1cnc[nH]1)C(=O)N[C@@H](CC(N)=O)C(=O)N[C@@H](CC(C)C)C(=O)NCC(=O)N[C@@H](CCCCN)C(=O)N[C@@H](Cc1cnc[nH]1)C(=O)N[C@@H](CC(C)C)C(=O)N[C@@H](CC(N)=O)C(=O)N[C@@H](CO)C(=O)N[C@@H](CCSC)C(=O)N[C@@H](CCC(=O)O)C(=O)N[C@@H](CCCN=C(N)N)C(=O)N[C@H](C(=O)N[C@@H](CCC(=O)O)C(=O)N[C@@H](Cc1c[nH]c2ccccc12)C(=O)N[C@@H](CC(C)C)C(=O)N[C@@H](CCCN=C(N)N)C(=O)N[C@@H](CCCCN)C(=O)N[C@@H](CCCCN)C(=O)N[C@@H](CC(C)C)C(=O)N[C@@H](CCC(N)=O)C(=O)N[C@@H](CC(=O)O)C(=O)N[C@H](C(=O)N[C@@H](Cc1cnc[nH]1)C(=O)N[C@@H](CC(N)=O)C(=O)N[C@@H](Cc1ccccc1)C(=O)O)C(C)C)C(C)C` [Human PTH (1-34)], for which, in series [1], the “Purity after exposure to ozone atmosphere” value is “approximately 20%” and the “Total amount of human PTH (1-34) analogs after exposure to ozone atmosphere” value is 80%.
As for human PTH (1-34) [lot A], the “Amount of (6) Human PTH (1-34)-Met 8 [O]” value in series [2] (listed as A) was found to be 0.08%.
In the case of human PTH (1-34) [lot B], in series [2] (listed as B), the “Amount of (6) Human PTH (1-34)-Met 8 [O]” value turned out to be 0.07% and the “Amount of (7) Human PTH (1-34)-Met 18 [O]” value (from here on “Amount of (7) Human PTH”) was 0.09%.
Consider human PTH (1-34) [lot D], for which, in series [2] (listed as D), the “Amount of (6) Human PTH (1-34)-Met 8 [O]” value came to 0.05% and the “Amount of (7) Human PTH” value stood at 0.06%.
As for human PTH (1-34) [lot E], in series [2] (listed as E), the “Amount of (6) Human PTH (1-34)-Met 8 [O]” value turned out to be 0.05% and the “Amount of (7) Human PTH” value amounted to 0.07%.
Consider human PTH (1-34) [lot F], for which, in series [2] (listed as F), the “Amount of (6) Human PTH (1-34)-Met 8 [O]” value turned out to be 0.14% and the “Amount of (7) Human PTH” value is listed as 0.21%.
human PTH (1-34) [lot G]: in series [2] (listed as G), the “Amount of (6) Human PTH (1-34)-Met 8 [O]” value is recorded as 0.17% and the “Amount of (7) Human PTH” value was 0.23%.
As for human PTH (1-34) [lot H], in series [2] (listed as H), the “Amount of (6) Human PTH (1-34)-Met 8 [O]” value is listed as 0.06% and the “Amount of (7) Human PTH” value amounted to 0.09%.
